1 molecule from paper PMC5912465 can be followed below.

The experiment deals with T1, human CCL8 (residues Gln-24 to Pro-99), expressed in E. coli (human), P80075.
T1 chain: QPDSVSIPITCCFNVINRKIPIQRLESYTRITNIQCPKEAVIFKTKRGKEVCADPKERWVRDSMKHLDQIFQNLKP
Nature of the experiment: native MS; CCL8 alone in 200 mM ammonium acetate pH 6.5; modified Q Exactive, capillary voltage 1.2 kV, source temperature 100 °C. As to conditions: remark: other sources report otherwise.

B1: human CCL8 (residues Gln-24 to Pro-99), expressed in E. coli, P80075 24-99 (ligand)
chain: QPDSVSIPITCCFNVINRKIPIQRLESYTRITNIQCPKEAVIFKTKRGKEVCADPKERWVRDSMKHLDQIFQNLKP
B1 showed a stoichiometry N of 2.

For orientation: stoichiometry N means the number of molecules, sites or subunits per partner or assembly.
